Article PMC5342242, “Altering the N-terminal arms of the polymerase manager protein UmuD modulates protein interactions” (PLoS ONE, 2017)
Positions count from the first letter of the chain named. Names may count otherwise.

B1: UmuD 3A (natural protein, E. coli, UniProt P0AG11 1-139, looked up)
chain: MLFIKPADLREIVAFPAASDLVQCGFPSPAADYVEQRIDLNQLLIQHPSATYFVKASGDSMIDGGISDGDLLIVDSAITASHGDIVIAAVDGEFTVKKLQLRPTVQLIPMNSAYSPITISSEDTLDVFGVVIHVVKAMR
notes: UmuD, E. coli, full-length arms, three alanine mutations T14A L17A F18A; also called UmuD T14A L17A F18A; source: purified; not further stated
B2: UmuD S60A (natural protein, E. coli, UniProt P0AG11 1-139, looked up)
chain: B1 chain with A14T, A17L, A18F, S60A
notes: UmuD, E. coli, full-length 139 residues, non-cleavable active-site variant S60A; also called full-length UmuD-S60A; active site variant UmuD S60A; source: purified; expression from pSG5 as previously described [33, 34]
B3: UmuD S60A C24A A7C (natural protein, E. coli, UniProt P0AG11 1-139, looked up)
chain: B1 chain with A7C, A14T, A17L, A18F, C24A, S60A
notes: UmuD, E. coli, with the full-length arm; single cysteine moved from position 24 to position 7; S60A; also called UmuD A7C C24A S60A; source: purified; not further stated
B4: wild-type UmuD (natural protein, E. coli, UniProt P0AG11 1-139, looked up)
chain: B1 chain with A14T, A17L, A18F
notes: UmuD, E. coli, full-length, 139 residues; also called WT UmuD; full-length UmuD; source: purified; expression from pSG5 as previously described [33, 34]
B5: UmuD 8 S60A (domain or fragment, E. coli, UniProt P0AG11 8-139, looked up)
chain: DLREIVTFPLFSDLVQCGFPSPAADYVEQRIDLNQLLIQHPSATYFVKASGDAMIDGGISDGDLLIVDSAITASHGDIVIAAVDGEFTVKKLQLRPTVQLIPMNSAYSPITISSEDTLDVFGVVIHVVKAMR
notes: UmuD, E. coli, lacking the N-terminal 7 residues (Δ1–7) of the 139-residue full-length protein; non-cleavable active-site variant S60A; Plasmid pSG5 derivative; also called UmuD Δ1–7 S60A; source: constructed in pSG5, expressed and purified as previously described [33, 34]
B6: UmuD 18 S60A (domain or fragment, E. coli, UniProt P0AG11 18-139, looked up)
chain: FSDLVQCGFPSPAADYVEQRIDLNQLLIQHPSATYFVKASGDAMIDGGISDGDLLIVDSAITASHGDIVIAAVDGEFTVKKLQLRPTVQLIPMNSAYSPITISSEDTLDVFGVVIHVVKAMR
notes: UmuD, E. coli, lacking the N-terminal 17 residues (Δ1–17) of the 139-residue full-length protein; non-cleavable active-site variant S60A; Plasmid pSG5 derivative; also called UmuD Δ1–17 S60A; source: constructed in pSG5, expressed and purified as previously described [33, 34]

Target: the molecule itself
Assay: cross-linking; 10 mM bis(maleimido)hexane (BMH), 40 μM protein, 10 min at room temperature; cross-linked dimers seen by Coomassie-stained SDS-PAGE
Details: not given
For B1, the percent cross-linked dimers was 41%. B2 was tested, and the percent cross-linked dimers was 31%. With B3 the percent cross-linked dimers was 71%. B4 was tested, and the percent cross-linked dimers was 25%. For B5, the percent cross-linked dimers was 32%. B6 showed a percent cross-linked dimers of 39%.

Each binder was assayed against T1, DNA polymerase III α subunit truncation α1–280 (E. coli, UniProt P10443 1-280) (assay: other fluorescence titration; intrinsic tryptophan fluorescence of α; UmuD titrated into a solution of α; equilibrium Kd). Details: both partners purified.
T1 construct: α polymerase subunit of DNA polymerase III, E. coli, residues 1–280; also called N-terminal domain of α; PHP domain; source: described previously [21]
T1 sequence (P10443 1-280): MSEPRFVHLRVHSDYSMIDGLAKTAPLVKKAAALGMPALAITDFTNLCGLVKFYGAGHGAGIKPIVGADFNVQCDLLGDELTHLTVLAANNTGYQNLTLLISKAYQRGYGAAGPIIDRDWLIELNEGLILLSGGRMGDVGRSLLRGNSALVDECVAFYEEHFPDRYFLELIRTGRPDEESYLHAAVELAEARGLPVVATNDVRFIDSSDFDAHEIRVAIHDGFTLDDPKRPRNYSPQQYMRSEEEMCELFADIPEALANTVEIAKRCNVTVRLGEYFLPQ
In the case of B5, the Kd is reported as 3.5 ± 0.8 µM. In the case of B6, the Kd is reported as 5.9 ± 0.9 µM.

The binders below were run against T2, DNA polymerase III α subunit truncation α917–1160 (E. coli, UniProt P10443 917-1160) in the same assay as above. Details: both partners purified.
T2 construct: α polymerase subunit of DNA polymerase III, E. coli, residues 917–1160; also called C-terminal fragment of α; source: described previously [21]
T2 sequence (P10443 917-1160): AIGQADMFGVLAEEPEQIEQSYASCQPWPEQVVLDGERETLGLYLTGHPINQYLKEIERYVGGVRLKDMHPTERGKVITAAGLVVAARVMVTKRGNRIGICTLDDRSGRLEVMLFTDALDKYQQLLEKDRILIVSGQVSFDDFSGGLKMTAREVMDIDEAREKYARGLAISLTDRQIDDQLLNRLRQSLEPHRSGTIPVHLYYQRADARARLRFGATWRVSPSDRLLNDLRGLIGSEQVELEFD
For B5, the Kd was 0.2 ± 0.4 µM. B6 showed a Kd of 3.6 ± 0.4 µM.

The binders below were run against T3, DNA polymerase III α subunit, full-length (E. coli, UniProt P10443 1-1160, in the FRET assay only: labeled with Alexa Fluor 647 C2-maleimide) in the same assay as above. Details: both partners purified.
T3 construct: α polymerase subunit of DNA polymerase III, E. coli, full-length; Unlabelled in the tryptophan fluorescence titration; also called pol III α; full-length α; source: purified; as previously described [21]
T3 sequence (P10443 whole entry): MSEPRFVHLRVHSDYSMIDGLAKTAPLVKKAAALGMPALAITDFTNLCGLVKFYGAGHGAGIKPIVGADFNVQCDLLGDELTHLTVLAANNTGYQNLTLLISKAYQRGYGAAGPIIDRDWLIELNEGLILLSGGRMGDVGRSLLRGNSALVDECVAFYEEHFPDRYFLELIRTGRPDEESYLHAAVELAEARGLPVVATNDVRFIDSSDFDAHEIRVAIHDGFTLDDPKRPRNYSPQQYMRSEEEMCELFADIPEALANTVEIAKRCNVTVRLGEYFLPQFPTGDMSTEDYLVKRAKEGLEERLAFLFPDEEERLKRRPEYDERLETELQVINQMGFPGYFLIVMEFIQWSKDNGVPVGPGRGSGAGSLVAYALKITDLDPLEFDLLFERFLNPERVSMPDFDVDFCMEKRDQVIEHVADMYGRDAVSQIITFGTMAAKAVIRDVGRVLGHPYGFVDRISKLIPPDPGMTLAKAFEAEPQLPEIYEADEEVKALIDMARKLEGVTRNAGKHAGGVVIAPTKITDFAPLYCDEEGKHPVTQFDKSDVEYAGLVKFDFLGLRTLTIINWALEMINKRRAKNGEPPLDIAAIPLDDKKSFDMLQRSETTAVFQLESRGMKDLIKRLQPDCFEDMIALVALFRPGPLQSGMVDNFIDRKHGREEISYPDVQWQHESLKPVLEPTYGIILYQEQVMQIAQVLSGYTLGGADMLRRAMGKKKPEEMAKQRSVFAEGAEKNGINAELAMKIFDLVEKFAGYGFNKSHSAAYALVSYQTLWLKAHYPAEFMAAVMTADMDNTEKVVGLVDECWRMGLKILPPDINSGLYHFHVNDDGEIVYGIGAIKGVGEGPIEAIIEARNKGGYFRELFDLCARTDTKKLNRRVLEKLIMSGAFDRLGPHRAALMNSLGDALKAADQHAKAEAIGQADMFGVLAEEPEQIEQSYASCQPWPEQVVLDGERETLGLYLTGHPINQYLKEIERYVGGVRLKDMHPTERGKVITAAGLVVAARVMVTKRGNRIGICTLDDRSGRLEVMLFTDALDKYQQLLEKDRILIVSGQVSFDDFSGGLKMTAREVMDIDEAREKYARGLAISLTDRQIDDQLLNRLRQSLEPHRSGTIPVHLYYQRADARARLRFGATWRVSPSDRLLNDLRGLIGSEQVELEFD
With B5 the Kd was 8.1 ± 0.9 µM. Work on B6 yielded a Kd of 12.2 ± 0.2 µM.
